From patent publication US20240059799A1 (Pfizer, published 2024) come the findings set out here.

Where a chain is given by its changes, count along the chain named.

The target in one assay is T1, cynomolgus monkey IL-12 (cynomolgus monkey).
T1 construct: Heterodimer p40/p35; Whole entries as named; also called IL-12 Cyno
T1 chain 1: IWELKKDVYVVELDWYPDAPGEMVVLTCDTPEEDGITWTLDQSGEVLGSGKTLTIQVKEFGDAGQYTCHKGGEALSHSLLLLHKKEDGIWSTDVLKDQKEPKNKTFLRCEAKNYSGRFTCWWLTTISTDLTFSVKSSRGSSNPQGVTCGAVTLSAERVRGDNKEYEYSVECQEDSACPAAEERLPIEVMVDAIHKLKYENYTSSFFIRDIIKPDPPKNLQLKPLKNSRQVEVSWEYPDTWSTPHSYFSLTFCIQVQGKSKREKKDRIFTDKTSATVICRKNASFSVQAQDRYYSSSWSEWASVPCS
T1 chain 2: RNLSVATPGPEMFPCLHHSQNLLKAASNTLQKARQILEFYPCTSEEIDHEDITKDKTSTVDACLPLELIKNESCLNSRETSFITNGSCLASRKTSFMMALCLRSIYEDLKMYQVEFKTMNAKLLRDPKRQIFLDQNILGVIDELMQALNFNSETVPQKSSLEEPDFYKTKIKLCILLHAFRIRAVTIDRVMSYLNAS
Nature of the assay: SPR 37 C, antibody captured by anti-human Fc, cytokine injected. The method, then: (§1) For these analyses, kinetic assays were conducted at 37° C. using a collection rate of 10 Hz on a BIAcore™ T200 instrument (GE Healthcare). An anti-human IgG antibody (anti-human Fc, catalog number 10-005-098, Jackson ImmunoResearch) was amine coupled to all four flow cells of a carboxymethylated dextran coated sensor chip (GE Healthcare) using the manufacturer's recommended protocol.

The target in the next assay is T2, human IL-23 (human, UniProt P29460 23-328; Q9NPF7 20-189).
T2 construct: Heterodimer p40/p19; Whole entries as named; also called IL-23 Human; recombinant human IL-23
T2 sequence 1: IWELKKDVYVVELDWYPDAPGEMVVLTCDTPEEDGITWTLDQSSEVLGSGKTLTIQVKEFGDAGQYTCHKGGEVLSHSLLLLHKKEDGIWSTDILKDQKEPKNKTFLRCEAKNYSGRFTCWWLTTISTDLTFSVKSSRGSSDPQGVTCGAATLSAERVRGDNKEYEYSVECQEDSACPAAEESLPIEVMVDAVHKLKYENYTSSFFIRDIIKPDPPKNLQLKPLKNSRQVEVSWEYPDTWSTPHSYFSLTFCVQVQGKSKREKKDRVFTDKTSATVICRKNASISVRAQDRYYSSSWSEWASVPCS
T2 sequence 2: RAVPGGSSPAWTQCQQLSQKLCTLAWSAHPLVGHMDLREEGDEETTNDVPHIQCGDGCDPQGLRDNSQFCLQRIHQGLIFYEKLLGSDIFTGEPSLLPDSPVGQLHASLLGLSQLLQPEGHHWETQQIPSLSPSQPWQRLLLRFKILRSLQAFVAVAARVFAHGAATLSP
Described as above. On the procedure: as §1

The target in another assay is T3, human IL-12 (human, UniProt P29460 23-328; P29459 23-219).
T3 construct: Heterodimer p40/p35; also called IL-12 Human
T3 sequence 1: T2 sequence 1
T3 sequence 2: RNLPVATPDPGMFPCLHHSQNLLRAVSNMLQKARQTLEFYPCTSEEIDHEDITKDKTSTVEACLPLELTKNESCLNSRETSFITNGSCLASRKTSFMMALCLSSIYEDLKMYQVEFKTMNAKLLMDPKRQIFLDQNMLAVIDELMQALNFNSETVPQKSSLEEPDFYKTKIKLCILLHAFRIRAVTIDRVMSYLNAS
Described as above. The method, then:
as §1

The target of a further assay is T4, cynomolgus monkey IL-23 (cynomolgus monkey, limits assumed).
T4 construct: Heterodimer p40/p19; Whole entries as named; also called IL-23 Cyno
T4 chain 1: T1 chain 1
T4 chain 2: T2 sequence 2 with T12A, H75R, L131P
Described as above. The method, then:
as §1

Assay [1] addresses T5, recombinant human TL1A (human, UniProt O95150 71-251).
T5 construct: homotrimer; biotinylated for SPR capture; the ELISA paragraphs say only 'recombinant TL1A'; also called TNFSF15
T5 chain: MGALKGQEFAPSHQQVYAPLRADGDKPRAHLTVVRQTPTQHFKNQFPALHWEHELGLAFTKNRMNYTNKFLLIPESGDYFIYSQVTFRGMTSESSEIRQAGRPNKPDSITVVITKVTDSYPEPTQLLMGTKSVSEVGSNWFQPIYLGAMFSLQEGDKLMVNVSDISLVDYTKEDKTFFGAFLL
The experiment in a line: SPR, antibody injected over captured biotinylated human TL1A. On the procedure: An SPR assay was also used to determine whether the [xTL1A] bivalent antibody variants could bind recombinant human TL1A. […] A high concentration (1 μM) of [xTL1A] variant antibodies were injected in assay buffer (HBS-EP+, pH 7.4, Cytiva, product number BR100669).
In general terms: SPR reads the build-up and loss of mass on a sensor chip optically.

The target of assay [2] is T6, recombinant cynomolgus monkey TL1A (cynomolgus monkey, UniProt O95150 72-251 (human entry)).
T6 construct: biotinylated with Sulfo-NHS-biotin and captured for SPR
T6 chain: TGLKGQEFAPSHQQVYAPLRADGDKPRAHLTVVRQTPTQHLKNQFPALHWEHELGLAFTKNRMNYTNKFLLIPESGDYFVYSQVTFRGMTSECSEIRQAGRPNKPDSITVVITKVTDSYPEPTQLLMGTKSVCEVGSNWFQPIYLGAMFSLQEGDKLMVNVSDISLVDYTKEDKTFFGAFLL
The experiment in a line: SPR 37 C, biotinylated TL1A captured, antibody injected. The method, then: (§2) For these analyses, kinetic assays were conducted at 37° C. using a collection rate of 10 Hz on a Biacore™ T200 instrument (GE Healthcare). […] The association phase was 90 seconds, and the dissociation phases were 1600 seconds over human, cynomolgus monkey and rabbit TL1A and 180 seconds for mouse and rat TL1A.

In assay [3] the target is T7, recombinant rat TL1A (rat, UniProt Q8K3Y7 76-252).
T7 construct: biotinylated with Sulfo-NHS-biotin and captured for SPR
T7 sequence: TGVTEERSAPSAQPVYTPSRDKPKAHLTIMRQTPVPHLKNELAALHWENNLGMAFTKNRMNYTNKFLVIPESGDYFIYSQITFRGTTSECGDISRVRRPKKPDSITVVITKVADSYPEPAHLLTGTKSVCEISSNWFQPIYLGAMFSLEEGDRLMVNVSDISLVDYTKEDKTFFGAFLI
The assay is described as above. On the procedure:
as §2

Assay [4] deals with T8, recombinant human TL1A (human, UniProt O95150 71-251).
T8 construct: Homotrimeric cytokine; biotinylated with Sulfo-NHS-biotin where captured for SPR, coated unlabelled in ELISA, soluble in bioassays; also called TNFSF15
T8 chain: T5 chain
The assay is described as above. The method, then: as §2

The next assay concerns the target T9, recombinant mouse TL1A (mouse, UniProt Q5UBV8 75-252).
T9 construct: biotinylated with Sulfo-NHS-biotin and captured for SPR
T9 chain: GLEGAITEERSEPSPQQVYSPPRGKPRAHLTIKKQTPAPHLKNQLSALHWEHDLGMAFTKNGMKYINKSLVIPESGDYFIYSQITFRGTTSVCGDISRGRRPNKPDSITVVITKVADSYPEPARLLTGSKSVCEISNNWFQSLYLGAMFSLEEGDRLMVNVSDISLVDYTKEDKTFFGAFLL
Described as above. The method, then:
as §2

Assay [5] deals with T8, recombinant human TL1A. Nature of the assay: SPR, recombinant human TL1A.
Assay [6] concerns the target T7, recombinant rat TL1A. The experiment in a line: SPR 37 C, biotinylated TL1A captured, antibody injected; approximate KD. The method, then: as §2
Assay [7] concerns the target T8, recombinant human TL1A. Nature of the assay: cell-based or functional assay.
In another assay the target is T10, bovine serum albumin (bovine, UniProt P02769 25-607).
T10 construct: also called BSA
T10 sequence (P02769 25-607 limits assumed): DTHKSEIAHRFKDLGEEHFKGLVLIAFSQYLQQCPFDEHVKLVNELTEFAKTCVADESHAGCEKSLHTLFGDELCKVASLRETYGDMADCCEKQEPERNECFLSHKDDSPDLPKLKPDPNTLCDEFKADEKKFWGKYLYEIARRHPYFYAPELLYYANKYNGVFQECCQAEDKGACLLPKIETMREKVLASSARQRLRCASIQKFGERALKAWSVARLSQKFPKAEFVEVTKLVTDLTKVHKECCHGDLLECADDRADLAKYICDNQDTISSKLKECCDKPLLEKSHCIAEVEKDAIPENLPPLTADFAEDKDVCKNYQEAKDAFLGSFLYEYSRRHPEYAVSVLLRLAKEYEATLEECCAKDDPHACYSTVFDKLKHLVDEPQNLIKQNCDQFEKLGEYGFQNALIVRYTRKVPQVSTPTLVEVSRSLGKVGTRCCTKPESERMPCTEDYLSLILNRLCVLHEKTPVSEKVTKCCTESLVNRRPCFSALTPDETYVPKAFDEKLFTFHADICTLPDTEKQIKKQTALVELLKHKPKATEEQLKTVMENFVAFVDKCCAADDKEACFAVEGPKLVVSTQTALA
Nature of the assay: direct binding ELISA on plate-coated BSA (1 ug/mL), anti-human IgG-Fc HRP, OD450. The method, then: (§3) For the direct binding ELISA method to HSA or BSA, 96-well high binding plates (Corning, product number 3590) were coated with 1 μg/mL recombinant HSA or BSA in 100 μL/well in PBS overnight at 4° C. Plates were then blocked in PBS+0.02% casein solution and washed with PBS+0.05% Tween-20 following standard ELISA protocol. […] Plates were washed with PBS+0.05% Tween-20 following standard ELISA protocol, and goat anti-human IgG-Fc HRP conjugated secondary antibody (Pierce, #31413) diluted to 1:10,000 in assay buffer was added to plates and incubated for 1 hour at room temperature. Next, the plates were washed with PBS+0.05% Tween-20 following standard ELISA protocol, and then TMB substrate (BioFX Laboratories, catalog number TMBW-0100-01) was added to plates.
(§4) Reactions were stopped after approximately 5 minutes by adding 0.18 M ortho-phosphoric acid to each well and absorbance was read at 450 nm. […] For this method, samples diluted to 0.3 mg/mL were dispensed into the sample tray of a MicroCal VP-Capillary DSC with Autosampler (Malvern Instruments, Inc.), equilibrated for 5 minutes at 10° C. and then scanned up to 110° C. at a rate of 100° C. per/hour. A filtering period of 16 seconds was selected. Raw data was baseline corrected and the protein concentration was normalized. Origin Software 7.0 (Origin Lab Corporation, Northampton, MA) was used to fit the data to an MN2-State Model with an appropriate number of transitions.
A general note: An ELISA detects its analyte on a solid surface through an enzyme-linked reagent.

Another assay has as its target T11, human serum albumin (human, UniProt P02768 25-609).
T11 construct: also called HSA
The experiment in a line: direct binding ELISA on plate-coated HSA (1 ug/mL), anti-human IgG-Fc HRP, OD450. The method, then:
as §3, §4

B1: p40-0003 (antibody, human IgG1, kappa, V domains shown)
VH: EVQLVQSGAEVKKPGESLKISCKGSGYSFTTYWLGWVRQMPGKGLDWIGIMSPVDSDIRYSPSFQGQVTMSVDKSITTAYLQWNSLKASDTAMYYCARRRPGQGYFDFWGQGTLVTVSS
VL: DIQMTQSPSSLSASVGDRVTITCRASQGISSWLAWYQQKPEKAPKSLIYAASSLQSGVPSRFSGSGSGTDFTLTISSLQPEDFATYYCQQYNIYPYTFGQGTKLEIKR
notes: human IgG1 effector-function-minimized/kappa; also called anti-IL12p40 p40-0003 antibody; C230 (ustekinumab) variable regions
Turning to B1, the Kd came to 0.368 nM with cynomolgus monkey IL-12, 0.16 nM in the assay with human IL-23, 0.156 nM with human IL-12 and 0.317 nM with cynomolgus monkey IL-23.

B2: [xTL1A]-0349 bivalent antibody (antibody, human IgG1, kappa, V domains shown)
VH: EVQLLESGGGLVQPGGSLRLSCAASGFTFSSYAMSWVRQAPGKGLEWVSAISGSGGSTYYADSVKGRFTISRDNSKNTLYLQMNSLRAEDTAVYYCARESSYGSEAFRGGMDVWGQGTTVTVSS
VL: DIQMTQSPSSLSASVGDRVTITCRASQSVSSYLAWYQQKPGKAPKLLIYDASNRATGVPSRFSGSGSGTDFTLTISSLQPEDFATYYCQQRSNWPWTFGQGTKVEIKR
notes: disabled (null) bivalent IgG1/kappa
For the molecule B2, the binding result with recombinant human TL1A [1] is on record as “no binding (tested: 1 µM)”.

B3: TL1A-0372 (bispecific antibody, human IgG1, kappa)
heavy 1: QVQLVQSGAEVKKPGASVKVSCKASGYDYTYYGISWVRQAPGQGLEWMGWISTYNTGTHYAPSLQGRVTMTTDTSTSTAYMELRSLRSDDTAVYYCARESYYGSGAFRGGMDVWGQGTTVTVSSASTKGPSVFPLAPSSKSTSGGTAALGCLVKDYFPEPVTVSWNSGALTSGVHTFPAVLQSSGLYSLSSVVTVPSSSLGTQTYICNVNHKPSNTKVDKKVEPKSCDKTHTCPPCPAPEAAGAPSVFLFPPKPKDTLMISRTPEVTCVVVDVSHEDPEVKFNWYVDGVEVHNAKTKPREEQYNSTYRVVSVLTVLHQDWLNGKEYKCKVSNKALPAPIEKTISKAKGQPREPQVCTLPPSREEMTKNQVSLWCLVKGFYPSDIAVEWESNGQPENNYKTTPPVLDSDGSFFLYSKLTVDKSRWQQGNVFSCSVLHEALHSHYTQKSLSLSPGK
heavy 2: not shown
light: not shown
notes: monovalent bispecific (null-arm) antibody, IgG1 KiH, LS
Regarding B3, the equilibrium dissociation constant (Kd) in assay [2] was 1.27 nM; with recombinant human TL1A [4] it was 0.54 nM; with recombinant mouse TL1A, 295 nM; with recombinant human TL1A [5], 0.286 nM; with recombinant rat TL1A [6], approximately 1510 nM. Further, the koff amounted to 0.000121 s⁻¹ in assay [2]; 0.0483 s⁻¹ with recombinant rat TL1A [3]; 6.21e-05 s⁻¹ with recombinant human TL1A [4]; 0.00708 s⁻¹ with recombinant mouse TL1A; 4.98e-05 s⁻¹ in the assay with recombinant human TL1A [5]. The kon in assay [2] worked out at 96400 M⁻¹ s⁻¹; with recombinant rat TL1A [3], 32200 M⁻¹ s⁻¹; with recombinant human TL1A [4], 114000 M⁻¹ s⁻¹; with recombinant mouse TL1A, 24000 M⁻¹ s⁻¹; in the assay with recombinant human TL1A [5], 174000 M⁻¹ s⁻¹. The “NFκB Bioassay IC50” value in the assay with recombinant human TL1A [7] stood at 1.47 nM. For the same molecule, the binding result with bovine serum albumin and with human serum albumin was “no binding (tested: 1e-6 M)” throughout.

The Kd is a measure of binding affinity in units of concentration. In general, koff refers to the rate constant with which the complex falls apart. Usually kon stands for a measure of how fast the partners come together.
